Measured values published in US20140072558A1 (ANTIBODY AND RECEPTOR THERAPEUTICS, published 2014).

T1: FLAG-tagged water-soluble DLK1 (Homo sapiens (Human), UniProt P80370 25-302)
T1 construct: also called FLAG-DLK1; not shown: FLAG tag
T1 sequence: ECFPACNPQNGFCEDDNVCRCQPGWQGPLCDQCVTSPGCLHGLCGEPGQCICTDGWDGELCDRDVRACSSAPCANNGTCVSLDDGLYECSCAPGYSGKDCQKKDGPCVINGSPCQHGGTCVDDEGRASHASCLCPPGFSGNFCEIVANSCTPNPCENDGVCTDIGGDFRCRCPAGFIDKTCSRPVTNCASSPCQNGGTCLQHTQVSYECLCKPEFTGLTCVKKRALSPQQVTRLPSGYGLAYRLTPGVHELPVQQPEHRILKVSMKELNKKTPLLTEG

B1: ACVR2B-Fc (Fc fusion, UniProt Q13705 19-137, looked up)
chain: SGRGEAETRECIYYNANWELERTNQSGLERCEGEQDKRLHCYASWRNSSGTIELVKKGCWLDDFNCYDRQECVATEENPQVYFCCCEGNFCNERFTHLPEAGGPEVTYEPPPTAPTLLT
notes: extracellular domain; Prepared by attaching Fc to an extracellular part of ACVR2B; not shown: Fc
B2: DLK1A04 (scFv, V domains shown)
VH: QVQLVESGAEVKKPGASVKVSCKASGYTFKDYAIHWVRQAPGQRLEWMGWINPGSGNTKYSHNFEGRVILTRDASANTAYLELPSLRSEDTAVYYCARSVSAYGSNYFDPWGQGTLITVSS
VL: DIQMTQSPSSLSASVGDRVTITCQASQDISNYLNWYQQKPGKAPKLLIYSTSNLQSGVPSRFSGSGSGTDFTLTISSLQPEDFATYYCQQLNSYPLTFGGGTKVDIK
notes: Monoclonal scFv on phage; VH1-3, L8
B3: DLK1H12 (scFv, V domains shown)
VH: QVQLVQSGGGLVKPGGSLRLSCAASEFTFSDYYMSWVRQAPGKGLEWLSYISGSGITTYYADSVKGRFTISRDNGKKSLYLEMNSLRAEDTAVYYCARLQGHCSGGACSNWFDAWGQGTLITVSS
VL: DIQMTQSPSSLSASVGDRLTITCRASQSILTYLNWYQQKPGKAPKLLIYAASSLQRGVPSRFSGSGSGTDFTLTISGLQPEDFATYYCQQGYGTPYTFGQGTKVDIK
notes: Monoclonal scFv on phage; VH3-11, O12
B4: DLK1-Fc fusion protein (Fc fusion)
chain: T1 sequence
notes: Water-soluble DLK1 joined to a human antibody Fc region; also called DLK1-Fc-FITC; not shown: human antibody Fc region
B5: activin A (ligand, UniProt P08476 311-426, looked up)
chain: GLECDGKVNICCKKQFFVSFKDIGWNDWIIAPSGYHANYCEGECPSHIAGTSGSSLSFHSTVINHYRMRGHSPFANLKSCCVPTKLRPMSMLYYDDGQNIIKKDIQNMIVEECGCS
notes: also called ligand of ACVR2B
B6: DLK1H06 (scFv, V domains shown)
VH: QVQLVQSGGGLIQPGGSLRLSCAASGFTFSLYGMSWVRQAPGKGLEWVSSIPGSGTRTHYADSVKGRFTISRDNSKNTLFLQMNSLRAEDTAVYYCAKSTAYLFDYWGPGTLVTVSS
VL: DIQMTQSPATLSLSPGERATLSCRASQSIRHYLAWYQQKPGQAPRLLIHGASSRATGIPDRFSGSGSGTDFTLTISRLEPEDFAVYYCQHYGSPLHSFGPGTKVEIK
notes: Monoclonal scFv on phage; VH3-23, A27
B7: DLK1A10 (scFv, V domains shown)
VH: QVQLVESGGGLVQPGRSLRLSCAASGFTFDDYAMHWVRQAPGKGLEWVSGISWNSGSIGYADSVKGRFTISRDNAKNSLYLQMNSLRAEDTAVYYCARGPGLATGKGYADYWGQGTLVTVSS
VL: DIQMTQSPSSVSASVGDRVTITCRASQRISSWLAWYQQKPGRAPKLLIHSASTLHNGVPSRFSGSASGTDFTLTISSLQPEDYAIYYCQQGHSFPYTFGQGTKLEIK
notes: Monoclonal scFv on phage; VH3-9
B8: DLK1A05 (scFv, V domains shown)
VH: QMQLVESGGGLVQPGRSLRLSCAASGFTFDEHAMHWVRQAPGKGLEWVSGINWNSGKTGYADSVKGRFTISRDNGKNSLYLQMNSLRAEDTAVYYCAKSGGYGGNTNWYFDLWGRGTLVTVSS
VL: QFVLTQPPSVSGAPGQNVTISCIGTSSNIGVGYDVHWYQQVPGTAPKLLVYGNNNRPSGVPDRFSGSKSGTSASLAITGLQAEDEADYYCQSYDSRLGVVFGGGTKLTVL
notes: Monoclonal scFv on phage; VH3-9, V1-13
B9: ACVR1A-Fc (Fc fusion, UniProt Q04771 21-123, looked up)
chain: MEDEKPKVNPKLYMCVCEGLSCGNEDHCEGQQCFSSLSINDGFHVYQKGCFQVYEQGKMTCKTPPSPGQAVECCQGDWCNRNITAQLPTKGKSFPGTQNFHLE
notes: Control protein; not shown: Fc
B10: DLK1B09 (scFv, V domains shown)
VH: QMQLVESGGRLVRPGGSLRLSCAASGFPFTSYAMNWVRQTPGKGLEWVSTITATSGKTYYADSVKGRFTISRDNSRNTLFLQMNSLRAEDTAVYYCVRGESCSGGACSDFDYWGQGALVTVSS
VL: QLVLTQPASVSGSPGQSVTISCTGTSSDIGRYNRVSWYQHHPGKAPKLILNDVTTRPSGFSNRFSGSKSGNTASLTISGLQAEDEADYSCGSYAGSYTYVFGTGTKVTVL
notes: Monoclonal scFv on phage; VH3-23, V1-4; also called B09 (phage clone)

What was measured:
BSA = BSA (UniProt P02769 25-607); test: ELISA: BSA coated as control for non-specific binding, ACVR2B-Fc serially diluted, anti-human IgG-HRP
BSA, sequence (P02769 25-607 limits assumed): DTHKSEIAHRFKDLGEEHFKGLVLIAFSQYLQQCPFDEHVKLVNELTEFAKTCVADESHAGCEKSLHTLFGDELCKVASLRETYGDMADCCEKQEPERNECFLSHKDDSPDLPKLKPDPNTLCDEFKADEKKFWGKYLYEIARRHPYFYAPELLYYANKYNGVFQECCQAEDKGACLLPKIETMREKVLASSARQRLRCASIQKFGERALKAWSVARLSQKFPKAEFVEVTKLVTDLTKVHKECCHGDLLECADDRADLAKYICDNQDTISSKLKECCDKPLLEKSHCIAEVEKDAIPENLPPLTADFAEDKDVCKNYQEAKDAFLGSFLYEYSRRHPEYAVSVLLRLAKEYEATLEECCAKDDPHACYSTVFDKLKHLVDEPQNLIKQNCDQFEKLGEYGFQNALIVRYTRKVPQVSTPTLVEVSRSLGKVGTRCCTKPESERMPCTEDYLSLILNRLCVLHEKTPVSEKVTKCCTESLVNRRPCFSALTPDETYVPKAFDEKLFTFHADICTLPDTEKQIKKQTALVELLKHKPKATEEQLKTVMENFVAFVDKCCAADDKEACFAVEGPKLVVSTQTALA
Protocol: (§1) Binding between ACVR2B and water-soluble DLK1 was confirmed by enzyme immunoassay (ELISA). To this end, 1 μg/ml of FLAG-tagged water-soluble DLK1 was coated on an immunoplate (Nunc) at 4° C. for 16 hours. Here, as a control for detecting non-specific binding, BSA was used. The coated plate was washed with PBST (0.05% Tween 20) three times, and blocked with 5% skim milk PBST. ACVR2B-Fc prepared by attaching Fc to an extracellular part of ACVR2B was subjected to serial dilution, and reacted at room temperature for 1 hour. After the reaction, the cells were washed with PBST (0.05% Tween 20) three times, and […] (1:5000) was incubated for 1 hour to measure a binding degree. After the reaction, the cells were washed with PBST (0.05% Tween 20) three times, a color reaction was performed using TMB (Sigma), and 2.5 M H₂SO₄ was added to stop the reaction. And then optical density was measured at 450 nm.

[1] = molecular target: T1, FLAG-tagged water-soluble DLK1; test: ELISA
Protocol: as §1

DLK1-Fc fusion protein [2] = molecular target: B4; test: scFv-phage ELISA; OD on DLK1 divided by OD on a-myc
[3] = molecular target: T2, activin receptor type II B (ACVR2B) expressed in cells (UniProt Q13705 19-512, limits assumed); test: flow cytometry, 1 ug DLK1-Fc-FITC on 293E cells
T2 construct: whole, on cells; also called ACVR2B-overexpressed cell line
Protocol: To confirm binding between water-soluble DLK1 and ACVR2B on actual cells, an experiment was performed using flow cytometry. The experiment was performed using CantoII (BD), and an experiment method was summarized as follows. […] The harvested cells were washed with cold DPBS twice, 1 μg of DLK1-Fc-FITC was added to react at 4° C. for 2 hours. DLK1-Fc-FITC used in the reaction was manufactured using a protein FITC labeling kit (Pierce). After the reaction, washing with 1% PBA (1% BSA in DPBS) buffer was performed, a degree of binding was determined by flow cytometry, and the results are shown in FIG. 15. In addition, the cells used above were subjected to western blotting to confirm the expression of ACVR2B (FIG. 14).

DLK1-Fc fusion protein [4] = molecular target: B4; test: ELISA: activin A coated, DLK1-Fc added
activin A = molecular target: B5; test: ELISA: activin A coated 50 ng/ml
Protocol: To examine whether water-soluble DLK1 competitively bind to the ACVR2B receptor with activin A, enzyme immunoassay was performed. 50 ng/ml of activin A was coated and reacted with ACVR2B-Fc and FLAG-DLK1, and then the binding was detected. Here, ACVR2B was fixed to a concentration of 2 nM, FLAG-DLK1 was treated to have a concentration of 1 to 16 nM, and then a degree of competitive binding was measured. As controls, Fc and ACVR1A-Fc not binding to activin A were used.

| Binder | Ratio (DLK1-Fc fusion protein [2]) | other results |
| --- | --- | --- |
| B1 |  | binding result (BSA): no binding; binding result [1]: binds |
| B2 | 6.15 |  |
| B3 | 4.75 |  |
| B4 |  | binding result [3]: binds |
| B5 |  | binding result (DLK1-Fc fusion protein [4]): no binding |
| B6 | 2.47 |  |
| B7 | 2.21 |  |
| B8 | 3.81 |  |
| B9 |  | binding result (activin A): no binding |
| B10 | 25.3 |  |
